From patent US7960513B2, “Antibody against a human ADAM protease” (Monash University, priority 2004, dated 2011)

Columns and labels:
HEK293 cells [1] = experiment: Confocal imaging of co-cultured EphA3-diHcRed/ADAM10 and GFP-ephrin expressing cells; type: cell-based, human; details: co-incubation with GFP-ephrin-A5 or GFP-ephrin-A2 cells for 40 min
Protocol: FIG. 4. Mutation of acidic residues in the ADAM10 Cys-rich domain affects binding to EphA3/ephrin-A5 and cleavage of ephrin-A5. • A. In vitro binding of mutant ADAM10D+C to EphA3/ephrin-A5. ADAM10D+C[EEE-A] containing Alanine substitutions of Glu573, Glu578, Glu579 (lanes 1-4) or ADAM10D+C[RDD-A] (Ala substitutions of Arg525, Asp526, Asp527, lanes 5-8) were incubated alone (lanes 1, 5), or together with EphA3-Fc (lanes 2, 6), ephrin-A5-Fc (lanes 3, 7), or EphA3-Fc and ephrin-A5 (lanes 4, 8). Complexed proteins were extracted with Protein-A-Sepharose beads and analysed as in FIG. 2. • B. Binding of wild-type and mutant ADAM10ΔMP to EphA3 in cells. EphA3/293 cells were transfected with HA-ADAM10ΔMP or HA-ADAM10ΔMP [EEE-A]. Parental and transfected cells were treated for 10 min with or without pre-clustered ephrin-A5-Fc and lysed. Anti-HA and anti-EphA3 immunoprecipitates, and total cell lysates were analysed by Western blotting with indicated antibodies. • C. Ephrin-A5-Fc cleavage in cells expressing wt and 3A mutant ADAM10. EphA3/293 cells were transfected with full length, wild-type (wt) ADAM10, dominant-negative ADAM10ΔMP, or ADAM10 bearing alanine (3A) or 3 lysine (3K) substitutions of Glu573, 578, 579. Following exposure to clustered (+) or non-clustered ? ephrin-A5 Fc, cleaved ephrin was recovered and analysed by Western Blot as described in FIG. 1c. Parallel anti-HA blots of whole-cell lysates reveal the expression levels of ADAM10 constructs. • D. Model of ADAM protein modules and cleavage mechanism. Left, schematic representation of ADAM proteinases protein domain organization; right, schematic representation of the proposed interactions and positioning of ADAM10, EphA3, and Ephrin-A5 between interacting cells, leading to controlled ephrin-cleavage. • E. Ephrin cleavage from the cell surface is blocked by overexpression of 3A-mutant ADAM10. HEK293 cells were co-transfected with (red-fluorescent) EphA3-diHcRed and either wt ADAM10, ADAM10 bearing alanine (3A) substitutions at Glu573, Glu578, and Glu579, or dominant-negative ADAM10ΔMP. […]

HEK293 cells [2] = experiment: Confocal imaging of pro-EGF shedding in co-cultured EGFR-GFP/ADAM10 and HA-pro-EGF expressing cells; type: cell-based, human; details: co-incubation with HA-pro-EGF cells for 15 min
Protocol: FIG. 5. Cleavage of cell surface pro-EGF by ADAM10 co-expressed with the EGF receptor requires the intact substrate recognition pocket of ADAM10. HEK293 cells transiently expressing EGFR-GFP and either wild type or 3A mutant ADAM10 (as indicated) were co-incubated with HEK293 cells expressing HA-tagged pro-EGF for 15 min. The cells were then washed, fixed and stained with antibodies against ADAM10 (Alexa^546, red) and HA (Alexa^647, cyan). Arrows indicate EGFR/3A Adam10-expressing cells unable to take up EGF from associated HA-pro-EGF expressing cells (stars); arrowheads indicate cells that have taken up EGF that over-express EGFR and wtAdam10 (bottom panels), or just EGFR (with endogenous Adam10), top panels.
ADAM-mediated ligand cleavage from the cell surface, also referred to as ‘shedding’ has been extensively described as mechanism that facilitates the release of the pro-forms of the EGF-receptor ligands (Blobel, 2005, supra). We were interested to see, if the here described substrate recognition site of ADAM10 would function also to recognise pro-EGF and regulate its shedding from the cell surface. We performed the same confocal imaging approach, using HEK293 cells transfected to express GFP-tagged EGF-receptor, which were co-cultured with cells expressing HA-tagged pro-EGF. […]

B1: ADAM10 [EEE-A] mutant: full-length ADAM10 with alanine substitutions of Glu573, Glu578 and Glu579 (protein)
chain: TTVAEKNTCQLYIQTDHLFFKYYGTREAVIAQISSHVKAIDTIYQTTDFSGIRNISFMVKRIRINTTADEKDPTNPFRFPNIGVEKFLELNSEQNHDDYCLAYVFTDRDFDDGVLGLAWVGAPSGSSGGICEKSKLYSDGKKKSLNTGIITVQNYGSHVPPKVSHITFAHEVGHNFGSPHDSGTECTPGESKNLGQKENGNYIMYARATSGDKLNNNKFSLCSIRNISQVLEKKRNNCFVESGQPICGNGMVEQGEECDCGYSDQCKDECCYDANQPEGKKCKLKPGKQCSPSQGPCCTAHCAFKSKTEKCRDDSDCAKEGICNGITALCPASDPKPNFTDCNRHTQVCINGQCAGSICAKHGLAACTCASSDGKDDKELCHVCCMKKMEPSTCASTGSVQWNKYFLGRTITLQPGSPCNDFRGYCDVFMRCRLVDADGPLARLKKAIFSPELYENIAEWIVAYWWAVLLMGIALIMLMAGFIKICSVHTPSSNPKLPPPKPLPGTLKRRRPPQPIQQPQRQRPRESYQMGHMRR
modifications: left off: small tags and cut ends
notes: full-length ADAM10 with alanine substitutions of Glu573, Glu578 and Glu579
ephrin cleavage from the cell surface and internalisation (HEK293 cells [1]): absent
ephrin cleavage from the cell surface and internalisation (HEK293 cells [1]; listed as 3A-mutant ADAM10): blocked
EGF shedding and uptake into EGF-receptor expressing cells (HEK293 cells [2]): dramatically reduced
